# Paper PMC6180346, “Two Faces of CwlM, an Essential PknB Substrate, in Mycobacterium tuberculosis” (Cell Reports, 2018)
# Read-outs that look alike come from different tables or passages of the source.
# Target: FhaA C-terminal FHA domain (UniProt P71590)
substance,measurement,setting,value
CwlM 378-392 (from UniProt L7N653),binding against the reference,sites T382,gained
same,binding against the reference,sites T386,gained
